Experimental data: publication PMC8373119

Tests used:
[1] = target: ΔLaminin G1_Celsr3 (mouse Celsr3-Flag lacking the laminin G1 domain) (mouse) (UniProt Q91ZI0); experiment: co-IP
[2] = target: ΔEGF/Lam_Celsr3 (mouse Celsr3-Flag lacking all the EGF repeats and laminin domains) (mouse) (UniProt Q91ZI0); experiment: co-IP

B1: mouse Frizzled3 (Frizzled3-HA) (receptor)
chain: HSLFSCEPITLRMCQDLPYNTTFMPNLLNHYDQQTAALAMEPFHPMVNLDCSRDFRPFLCALYAPICMEYGRVTLPCRRLCQRAYSECSKLMEMFGVPWPEDMECSRFPDCDEPYPRLVDLNLVGDPTEGAPVAVQRDYGFWCPRELKIDPDLGYSFLHVRDCSPPCPNMYFRREELSFARYFIGLISIICLSATLFTFLTFLIDVTRFRYPERPIIFYAVCYMMVSLIFFIGFLLEDRVACNASSPAQYKASTVTQGSHNKACTMLFMVLYFFTMAGSVWWVILTITWFLAAVPKWGSEAIEKKALLFHASAWGIPGTLTIILLAMNKIEGDNISGVCFVGLYDVDALRYFVLAPLCLYVVVGVSLLLAGIISLNRVRIEIPLEKENQDKLVKFMIRIGVFSILYLVPLLVVIGCYFYEQAYRGIWETTWIQERCREYHIPCPYQVTQMSRPDLILFLMKYLMALIVGIPSIFWVGSKKTCFEWASFFHGRRKKEIVNESRQVLQEPDFAQSLLRDPNTPIIRKSRGTSTQGTSTHASSTQLAMVDDQRSKAGSVHSKVSSYHGSLHRSRDGRYTPCSYRGMEERLPHGSMSRLTDHSRHSSSHRLNEQSRHSSIRDLSNNPMTHITHGTSMNRVIEEDGTSA
**Q.** For B1, which percent reduction of the interaction against wild-type Celsr3 [1] is on record?
**A.** 66%

**Q.** What about the percent reduction of the interaction against wild-type Celsr3 [2] of the same binder?
**A.** 68%
